B1: LaG94-9 (VHH)
VHH: QVQLVESGGGLVQPGGSLRLSCAASGGTFDTHTMGWFRQAPGKQREFVSAIRLHGVGTYYADSVKGRFTISRENAKNTVHLQMNNLKPEDTAVYYCAADRNWSRATEKEEYDYWGQGTQVTVS
B2: LaG94-3 (VHH)
VHH: QVQLVESGGGLVQAGGSLRLSCTASGGTVSSSGMGWFRQSSGNDRDFVAFITPTGPTTWYEESVNSRFTVSRDNAKNTIYLQMKSLRPEDTAIYYCAAGNIGRDSRTYPYWGQGTQVTVS
B3: LaG94-6 (VHH)
VHH: QVQLVESGGGAVQAGGSLRLSCAASGLTFSLYTMGWFRQAPEKEPEFVAYISKSGDTTTYADSVKGRFTIGRDNAKSTVYLQMNSLKSEDTAVYYCAASIKREITPNSIYRGQGTQVTVS
B4: LaG94-12 (VHH)
VHH: QVQLVESGGRLVQAGGSLRLSCAVSGGTFSLYSLGWFRQAPGKEREFVAAFSREDGTTSFADSVKGRFTMFRDGTKNTVYLQMNSLKQEDTAVYSCAATVRAQPSYSWSSYVYRGLGTQVTVS
B5: LaG94-10 (VHH)
VHH: QVQLVESGGGLVQAGGSLRLSCAASGLTLRVYDVTWFRQAPGKEREFVGTVNRNGVVTDYADSVKGRFTISRDNPKNTIYLQMNSLKPEDTAVYYCAAKTRPKLSTLWDEYIYRGQGTQVTVS
B6: LaG94-4 (VHH)
VHH: DVQLVESGGGLVQAGGSLRLSCAASGDTSSIHFWEWYRQAPGKQRELVATANNGDFTHLQDSVKGRFTISKDNAKSTVYLQMNDLKPEDTAVYLCYARSYSNSNFWGQGTQVTVS
B7: LaG94-8 (VHH)
VHH: QVQLVESGGGLVQAGGSLRLSCAASGRTFMNYAMGWFRQAPGKGREFVASISWTGETSTYADFVKGRFTISRDNAKNTVYLQMDSLKPEDTAVYRCAAKRATDFDDTVREAAEADYWGQGTQVTVS
B8: LaG94-1 (VHH)
VHH: QVQLVESGGGLVQTGDSLRLSCRASGLTLSVYSTGWFRQAPGKEHENVAWISRSGDETYYEDSVKGRFTISRDNAKNTVYLQMNDLKPEDMARYYCAASNRGRTTAWNLYIYRGQGTQVTVS
B9: LaG94-2 (VHH)
VHH: DVQLVESGGALVQAGGSLRLSCEFSGGTFNLYGIGWFRQAPEQDHEFVAGVSRYGSTYESVSVKGRFTSSRDNAKNSAYLEMNTLKPEDTGVYTCAATVREQVPTNFGSYIYRGQGTQVTVS
B10: LaG94-15 (VHH)
VHH: QVQLVESGGGAVQSGGSLSLSCAASGGIRSISAMTWFRQAPGREREFVAAVTRTLGTTYYTDSVKGRFTISRDSVKGTLYLRMNNMRPEDAAVYYCAARTRGFSTKVALETTDGMDYWGKGTLVTVS
B11: LaG94-18 (VHH)
VHH: QVQLVESGGGLVQAGGSLRLSCVASGRTFSTSAMAWWRQAPGKEREFVAAISWNVGTTYYPDSVKGRFTISRDKAQNAVYLQMNSLKPEDTAVYYCAARVTGYFGDQVRRADDYRYWGQGTQVTVS
B12: LaG94-5 (VHH)
VHH: QVQLAESGGGLVQAGGSLRLSCAASGRTFAMGWFRRAPGKEREFVASMSRSGLDTHYADSVKGRFTISRDNALNTVYLQTDSLKPEDTGDYFCAVGLRYWSLSGDYIRREKYDVWGQGTQVTVS
B13: LaTdT-38 (VHH)
VHH: QVQLVESGGGLVQAGGSLRLSCAASGRSFSGNNMGWFRQVSGTEREFVAAISWSGLITEYSGAVKGRFTISRDNAKNTLYLQMNSLKPEDTAVYSCAADGRDVQLPGRSEYDYNYWGQGTQVTVS
B14: LaTdT-10 (VHH)
VHH: DVQLVESGGRLVQDGGSLRLSCEVSGGTFDTFAMGWFRQAPGKEREFVSAITWSGGNTYYGDSVKGRFTISRNNVKRTVYLQMISLKPEDTGVYYCAADPYGSSWSPLQKEGQYDYWGQGTQVTVS
B15: LaTdT-44 (VHH)
VHH: B14 VHH with D1Q
B16: LaTdT-39 (VHH)
VHH: QVQLVESGGGLVQAGESLQLSCAASGGTLRDAIVGWFRQARGKEREFLASITWSGLSTNYSDSVKGRFVISRANPQNTAYLQMNSLKPEDTAIYYCAAKIGAFGLADEFRTVPQYDSWGQGTQVTVS
B17: LaTdT-2 (VHH)
VHH: DVQLVESGGGLVQAGDSLRLSCAFSGSAFDTYAMGWFRQAPGKEREFVSAITWSGGNTYYADSAKGRFTISRDDAKNTVYLQMNSLKPEDAATYYCAANRYGSSWSPLTKMGQYEHWGQGTQVTVS
B18: LaTdT-45 (VHH)
VHH: B17 VHH with D1Q
B19: LaTdT-1 (VHH)
VHH: DVQLVESGGGLVPAGGSLRLSCAASTSDLFSRYTMGWFRQAPGKEREFVSAITGMSSMTKYADSVKGRFTVSRDNRKATMYLQMDSLKPEDTAVYYCAAHTTTAAATPQSMGLMLKYDHWGQGTEVTVS
B20: LaTdT-9 (VHH)
VHH: QVQLVESGGGLVQPGDSLMLSCVISGHTFTNFRMGWFRQAPGKEREFVAGITWLFGRTDYADSVQGRFTISRDKGKDTMYLQMDSLKPEDTGVYTCAVQSGVLAYPMREGFYDIWGQGTHVTVS
B21: LaTdT-8 (VHH)
VHH: QVQLVESGGGLVQAGDSLRLSCADAGLPYAFNHYGMAWFRQAPGKEREFVAGTSGGMTYYGDSVPDRFSFSRDNDKKTVHLHINSLKPEDTAVYYCAARLGGRYEDASDYDVWGQGTQVTVS
B22: GST-7 (VHH)
VHH: QVTLVESGGGLVQAGGSLGLSCTASGHTFNPYAMAWFRQAPGKEREFVAAIGWRVGTTYYTDSVKGRFTISADNAKNTAYLQMNSLKPEDTAVYYCAAGFGRSPSNYDYWGQGTQVTVS
notes: anti-GST nanobody; source: ArcticExpress (DE3) cells, purified from periplasm
B23: GST-6 (VHH)
VHH: QVQLVESGGGLVQPGESLRLSCAASGFTFSSHRMNWLRQAPGKGLEWVSTTSTGGGSAATYYVNSVKGRFTVSRDDAKNMLYLQMNSLKPEDTARYYCAIPESPGRPFGSTWSEYRYWGQGTQVTVS
notes: as for B22
B24: GST-8 (VHH)
VHH: QVQLVESGGDLVQAGGSLRLSCAASGSISAAYDMGWFRQVPGKQRELVASLGSGGFSAYADSVKGRFTVSRDNAKNTVYLQMNSLKPEDTGVYYCAARTPFDIWTTGRWGEYDYWGQGTQVTVS
notes: as for B22
B25: GST-1 (VHH)
VHH: QVQLVESGGGLVQAGGSLRLSCVCVGRAFGVYAMGWFRQSPGKEREFVAAITWNGGSIDYADSVKGRFAISRDNPPNTVYLQMNSLKPEDTAVYYCAKYRNNYYNEAPNSWGQGTQVTVS
notes: as for B22
B26: GST-4 (VHH)
VHH: B25 VHH
notes: as for B22
B27: GST-2 (VHH)
VHH: B25 VHH with C24V, V31A, D59T, Q82E, R100T, N109K
notes: as for B22
B28: GST-3 (VHH)
VHH: QVQLVESGGGLVQPGGSLRLSCADSGRIFSDYTMAWFRQPPGKEREFVASINRSGLGTYYADSVKGRFTVTRDNAKNMVYLQMNSLTVEDTAVYYCGARWGGSYIDPREGMYDFRGQGTQVTVS
notes: as for B22
B29: GST-5 (VHH)
VHH: QVQLVESGGGLVQAGGSLRLSCVVTGRAFGAYAMGWFRQSPGKEREFVAAITWNGGTTNYADSVKGRFAISRDNPPNTVYLQMNSLKPEDTAVYYCAKYPNNFWHNEAPDSWGRGTQVTVS
notes: as for B22

Where a chain is given by its changes, count along the chain named.

For one experiment, the target named is GFP [GFP: P42212]. Description: SPR; GFP immobilised by EDC/NHS coupling (ProteOn XPR36, GLC chip, 5 ug/ml in 10 mM sodium acetate pH 5.0; or Biacore 8K, CM5 chip, 5 ug/ml, pH 5.5); nanobody as analyte; 20 mM Na-Hepes pH 7.4, 150 mM NaCl, 0.05% Tween 20; Langmuir binding model.
Conditions: not given
On the technique in general: In SPR one partner is held on a chip, and binding of the other changes the refractive index at the surface.
In general, Kd refers to a measure of binding affinity in units of concentration. Read a low Kd as tighter binding. Turning to B1, the Kd worked out at 0.021 nM.

As to B2, the equilibrium dissociation constant (Kd) was 0.13 nM.

On to B3, for which the dissociation constant (Kd) amounted to 0.083 nM.

Regarding B4, the Kd was 0.3 nM.

Turning to B5, the Kd worked out at 0.009 nM.

On to B6, for which the Kd amounted to 3.7 nM.

B7 came in with a Kd of 0.21 nM.

Turning to B8, the Kd was found to be 0.016 nM.

Regarding B9, the dissociation constant Kd was 27 nM.

In the case of B10, the Kd is less than 0.00014 nM.

Molecule B11 yielded a Kd of 0.92 nM.

B12 came in with a Kd of less than 0.00089 nM.

Another experiment addresses tdTomato. Nature of the experiment: SPR; Biacore 8K; antigen immobilised on CM5 chip by amine coupling at 1 ug/ml (tdTomato) or 5 ug/ml (GST, IgGs) in 10 mM sodium acetate pH 5.5; nanobody injected in single-cycle kinetics at 0.1-10 nM; 20 mM Na-Hepes pH 7.4, 150 mM NaCl, 0.05% Tween 20; Langmuir 1:1 model, RIgG-1 and GIgG-4 fit to a two-step binding model.
Conditions: not given
With B13, the dissociation constant (Kd) turned out to be 0.057 nM.

Turning to B14, the Kd worked out at 0.052 nM.

Consider B15, for which the dissociation constant (Kd) stood at 0.044 nM.

Molecule B16 had a Kd of 0.0059 nM.

With B17, the Kd amounted to 0.0035 nM.

In the case of B18, the Kd is 0.028 nM.

For the molecule B19, the Kd is less than 0.018 nM.

In turn, B20 showed a Kd of 0.084 nM.

As for B21, the Kd was determined as 0.037 nM.

In the next experiment the target is T1, GST (Schistosoma japonicum (assumed, …, UniProt P08515 = GST)).
T1 construct: GST (glutathione S-transferase), the expression fusion protein tag; the methods describe only the production of GST-TEV protease; the 'GST' immobilised for SPR may be that fusion
T1 sequence (P08515 whole entry, looked up, the tested form may be a part): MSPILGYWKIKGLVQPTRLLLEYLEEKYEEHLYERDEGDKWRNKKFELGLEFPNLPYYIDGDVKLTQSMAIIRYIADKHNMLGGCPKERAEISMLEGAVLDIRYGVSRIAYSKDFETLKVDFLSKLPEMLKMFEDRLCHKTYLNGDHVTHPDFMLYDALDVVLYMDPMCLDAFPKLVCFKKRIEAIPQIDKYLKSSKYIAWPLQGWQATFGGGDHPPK
The experiment is described as above. Particulars: both partners purified.
Molecule B22 yielded a dissociation constant (Kd) of 0.17 nM.

B23 yielded a dissociation constant (Kd) of 0.15 nM.

On to B24, for which the affinity, expressed as Kd, was 0.13 nM.

For B25, binding was characterised by a dissociation constant (Kd) of 0.085 nM.

With B26, the Kd stood at 0.26 nM.

As to B27, binding was put at a Kd of 0.064 nM.

In turn, B28 registered a dissociation constant Kd of 0.35 nM.

On to B29, for which binding was characterised by a dissociation constant (Kd) of 0.13 nM.
